In US20260091068A1, “METHODS FOR TREATING AND PREVENTING DISEASES” (priority 2017, published 2026):

Test system: Bacteriophages of E. coli
Test: Inactivation of bacteriophages by nucleases and proteases, titer by Gratia's method (Example 22)
Format: cell-based
Details: E. coli phage treated with 10 mcg/ml enzyme for 30 min
Procedure: As a control, when the original phage is added back, the titer increases.

B1: Proteinase K: Proteinase K (Promega) (protein, UniProt P06873 106-384, looked up)
Proteinase K: AAQTNAPWGLARISSTSPGTSTYYYDESAGQGSCVYVIDTGIEASHPEFEGRAQMVKTYYYSSRDGNGHGTHCAGTVGSRTYGVAKKTQLFGVKVLDDNGSGQYSTIIAGMDFVASDKNNRNCPKGVVASLSLGGGYSSSVNSAAARLQSSGVMVAVAAGNNNADARNYSPASEPSVCTVGASDRYDRRSSFSNYGSVLDIFGPGTSILSTWIGGSTRSISGTSMATPHVAGLAAYLMTLGKTTAASACRYIADTANKGDLSNIPFGTVNLLAYNNYQA
- Phage titer (by Gratia's method): 6 × 10^4
